{
  "source": "the RNAGym collection of RNA variant scans (doi:10.7554/elife.80360)",
  "parents": {"B1": {"name": "Hairpin Ribozyme (parent)", "chain": "GUCCUCUUUCACGUGCGCGUGAAAGAGAGAAGUGAACCAGAGAAACACACGUUGUGGUAUAUUACCUGGUA"}},
  "data": [
    {"variants_of": "B1", "assay": "self-cleavage, relative activity (ratio to wild type); higher = more cleavage; co-transcriptional", "values": [
      {"variant": "GUCCGCUUUCACGUGCGCGUGAAAGAGAGAAGUGAACCAGAGAAACACACGUUGUGGUAUAUUACCUAGUA", "note": "[U5G G68A]", "self-cleavage": 0.201},
      {"variant": "GUCCGCUUUCACGUGCGCGUGAAAGAGAGAAGUGAACCAGACAAACACACGUUGUGGUAUAUUACCUGGUA", "note": "[U5G G42C]", "self-cleavage": 0.0932},
      {"variant": "GUCCGCUUUCACGUGCGCGUGAAAGAGAGAAGUGAACCAGAUAAACACACGUUGUGGUAUAUUACCUGGUA", "note": "[U5G G42U]", "self-cleavage": 0.198},
      {"variant": "GUCCUAUUUCACGUGCGCGUGAAAGAGAGCAGUGAACCAGAGAAACACACGUUGUGGUAUAUUACCUGGUA", "note": "[C6A A30C]", "self-cleavage": 0.221},
      {"variant": "GUCCGCUUUCACGUGCGCGUGAAAGAGAAAAGUGAACCAGAGAAACACACGUUGUGGUAUAUUACCUGGUA", "note": "[U5G G29A]", "self-cleavage": 0.139},
      {"variant": "GUCCUAUUUCUCGUGCGCGUGAAAGAGAGAAGUGAACCAGAGAAACACACGUUGUGGUAUAUUACCUGGUA", "note": "[C6A A11U]", "self-cleavage": 0.399},
      {"variant": "GUCCUAUUUCCCGUGCGCGUGAAAGAGAGAAGUGAACCAGAGAAACACACGUUGUGGUAUAUUACCUGGUA", "note": "[C6A A11C]", "self-cleavage": 0.415},
      {"variant": "GUCCGCUUUCACGUGCGCGUGAAAGAGAGAAGUGAACCAGAGAAACACACGUUGUGGUACAUUACCUGGUA", "note": "[U5G U60C]", "self-cleavage": 0.593},
      {"variant": "GUCCGCUUUCACGUGCGCGUGAAAGAGAGAAGUGAACCAGAGAAACACACGUUGUGGUAAAUUACCUGGUA", "note": "[U5G U60A]", "self-cleavage": 0.161},
      {"variant": "GUCCUAUUUCACGUGCGCGUGAAAGAGAGAAGUGAACCAGAGAAACACACGUUGUGGUCUAUUACCUGGUA", "note": "[C6A A59C]", "self-cleavage": 0.113},
      {"variant": "GUCCUAUUUCACGUGCGCGUGAAAGAGAGAAGUGAACCAGAGAAGCACACGUUGUGGUAUAUUACCUGGUA", "note": "[C6A A45G]", "self-cleavage": 0.0698},
      {"variant": "GUCCGCUUUCACGUGCGCGUGAAAGAGAGAAGUGAACCAGAGAAACACACGUUAUGGUAUAUUACCUGGUA", "note": "[U5G G54A]", "self-cleavage": 0.204},
      {"variant": "GUCCGCUUUCACGUGCGCGUGAAAGAGAGAAGUGAACCAGAGAAACACACGUUCUGGUAUAUUACCUGGUA", "note": "[U5G G54C]", "self-cleavage": 0.212},
      {"variant": "GUCCGCUGUCACGUGCGCGUGAAAGAGAGAAGUGAACCAGAGAAACACACGUUGUGGUAUAUUACCUGGUA", "note": "[U5G U8G]", "self-cleavage": 0.262},
      {"variant": "GUCCGCUCUCACGUGCGCGUGAAAGAGAGAAGUGAACCAGAGAAACACACGUUGUGGUAUAUUACCUGGUA", "note": "[U5G U8C]", "self-cleavage": 0.099},
      {"variant": "GUCCGCUUUCACGUGCGCGUGAAAGAGAGAAGUGAACCAGAGAAACACACUUUGUGGUAUAUUACCUGGUA", "note": "[U5G G51U]", "self-cleavage": 0.534},
      {"variant": "GUCCGCUUUCACGUGCGCGUGAAAAAGAGAAGUGAACCAGAGAAACACACGUUGUGGUAUAUUACCUGGUA", "note": "[U5G G25A]", "self-cleavage": 0.225},
      {"variant": "GUCCGCUUUCACGUGCGCGUGAAAGAGAGAAGUGAACCAGAGAAACACACGUUGUGGGAUAUUACCUGGUA", "note": "[U5G U58G]", "self-cleavage": 0.0427},
      {"variant": "GUCCUAUUUCACGUGCGCGUGAAAGAGAGAAGUGAACCAGAGAAACUCACGUUGUGGUAUAUUACCUGGUA", "note": "[C6A A47U]", "self-cleavage": 0.182},
      {"variant": "GUCCUAUUUCACGUGCGCGUGAAAGAGAGAAGUGAACCAGAGAAACCCACGUUGUGGUAUAUUACCUGGUA", "note": "[C6A A47C]", "self-cleavage": 0.221},
      {"variant": "GUCCGCUUUCACGUGCGCGUGAAAGAGAGAAGUGAACCAGAGAAACACACGUUGUGUUAUAUUACCUGGUA", "note": "[U5G G57U]", "self-cleavage": 0.163},
      {"variant": "GUCCGCUUUCACGUGCGCGUGAAAGAGAGAAGUGAACCAGAGAAACACACGUUGUGAUAUAUUACCUGGUA", "note": "[U5G G57A]", "self-cleavage": 0.127},
      {"variant": "GUCCGCUUUCACGUGCGCGUGAAAGAGAGAAGUGAACCAGAGAAACACACGUUGGGGUAUAUUACCUGGUA", "note": "[U5G U55G]", "self-cleavage": 0.2},
      {"variant": "GUCCGCUUUCACGUGCGCGUAAAAGAGAGAAGUGAACCAGAGAAACACACGUUGUGGUAUAUUACCUGGUA", "note": "[U5G G21A]", "self-cleavage": 0.17},
      {"variant": "GUCCGCUUUCACGUGCGCGUGAAAGAGAGAAGUGAACCAGAGAAACACACGUUGUUGUAUAUUACCUGGUA", "note": "[U5G G56U]", "self-cleavage": 0.125},
      {"variant": "GUCCUAUUUCACGUGCGCGUGAAAGAGUGAAGUGAACCAGAGAAACACACGUUGUGGUAUAUUACCUGGUA", "note": "[C6A A28U]", "self-cleavage": 0.365},
      {"variant": "GUCCUAUUUCACGUGCGCGUGAAAGAGGGAAGUGAACCAGAGAAACACACGUUGUGGUAUAUUACCUGGUA", "note": "[C6A A28G]", "self-cleavage": 0.811},
      {"variant": "GUCCUAUUUCACGUGCGCGUGAAAGCGAGAAGUGAACCAGAGAAACACACGUUGUGGUAUAUUACCUGGUA", "note": "[C6A A26C]", "self-cleavage": 0.418},
      {"variant": "GUCCGCUUUCACGUGCGCGUGAAAGAGAGAAGUGAACCAUAGAAACACACGUUGUGGUAUAUUACCUGGUA", "note": "[U5G G40U]", "self-cleavage": 0.13},
      {"variant": "GUCCGCUUUCACGUGCGCGUGAAAGAGAGAAGUGAACCACAGAAACACACGUUGUGGUAUAUUACCUGGUA", "note": "[U5G G40C]", "self-cleavage": 0.14},
      {"variant": "GUCCGCUUUCACGUGCGCGUGAAAGAGAGAAGUUAACCAGAGAAACACACGUUGUGGUAUAUUACCUGGUA", "note": "[U5G G34U]", "self-cleavage": 1.08},
      {"variant": "GUCCUAUUUCACGUGCGCGUGAAGGAGAGAAGUGAACCAGAGAAACACACGUUGUGGUAUAUUACCUGGUA", "note": "[C6A A24G]", "self-cleavage": 0.45},
      {"variant": "GUCCGCUUUCACGUGCGCGUGAAAGAGAGAAGUGAACCAGAGAAACACACGGUGUGGUAUAUUACCUGGUA", "note": "[U5G U52G]", "self-cleavage": 0.255},
      {"variant": "GUCCGCUUUCACGUGCGCGUGAAAGAGAGAAGUGAACCAGAGAAACACACGUUGUGGUAUAUUACCUGGCA", "note": "[U5G U70C]", "self-cleavage": 0.226},
      {"variant": "GUCCGCUUUCACGUGCGCGUGAAAGAGAGAAGUGAACCAGAGAAACACACGUUGUGGUAUAUUACCUGGAA", "note": "[U5G U70A]", "self-cleavage": 0.204},
      {"variant": "GUCCUAUUUCACGUGCGCGUGAAAGAGAGAAGUGGACCAGAGAAACACACGUUGUGGUAUAUUACCUGGUA", "note": "[C6A A35G]", "self-cleavage": 0.619},
      {"variant": "GUCCUAUUUCACGUGCGCGUGAAAGAGAGAAGUGCACCAGAGAAACACACGUUGUGGUAUAUUACCUGGUA", "note": "[C6A A35C]", "self-cleavage": 0.695},
      {"variant": "GUCCUAUUUCACGUGCGCGUGAAAGAGAGAAGUGUACCAGAGAAACACACGUUGUGGUAUAUUACCUGGUA", "note": "[C6A A35U]", "self-cleavage": 0.428}
    ]}
  ]
}
